Consider one molecule from patent publication US20190062383A1 (Janssen / Centocor, published 2019).

For the assay, the target named is KV1N2 (OsK1-Fc fusion) (Orthochirus scrobiculosus). The assay can be described thus: FACS competition with agitoxin2-cys-TAMRA.

B1: hKv1.3 E3 loop/hKv1.5 chimera (receptor)
chain: MEIALVPLENGGAMTVRGGDEARAGCGQATGGELQCPPTAGLSDGPKEPAPKGRGAQRDADSGVRPLPPLPDPGVRPLPPLPEELPRPRRPPPEDEEEEGDPGLGTVEDQALGTASLHHQRVHINISGLRFETQLGTLAQFPNTLLGDPAKRLRYFDPLRNEYFFDRNRPSFDGILYYYQSGGRLRRPVNVSLDVFADEIRFYQLGDEAMERFREDEGFIKEEEKPLPRNEFQRQVWLIFEYPESSGSARAIAIVSVLVILISIITFCLETLPEFRDERELLRHPPAPHQPPAPAPGANGSGVMAPPSGPTVAPLLPRTLADPFFIVETTCVIWFTFELLVRFFACPSKAGFSRNIMNIIDVVAIFPYFITLGTELAEQQPGGGGGGQNGQQAMSLAILRVIRLVRVFRIFKLSRHSKGLQILGKTLQASMRELGLLIFFLFIGVILFSSAVYFAEADDPTSGFSSIPDAFWWAVVTMTTVGYGDMHPVTIGGKIVGSLCAIAGVLTIALPVPVIVSNFNYFYHRETDHEEPAVLKEEQGTQSQGPGLDRGVQRKVSGSRGSFCKAGGTLENADSARRGSCPLEKCNVKAKSNVDLRRSLYALCLDTSRETDL
B1: the binding result is “binds”.
